Reference: US10251952B2, “Humanized anti-tau(pS422) antibody brain shuttles and use thereof” (Hoffmann-La Roche Inc., priority 2014, dated 2019)
“And” between values parts separate entries of the source, which are not always exact repeats. Equal entries are not always repeated.

Molecular target: human tau(pS422) (Homo sapiens, UniProt P10636, S739X)
Test: BIAcore kinetic screening and kinetic rates of humanized VH/VL combinations
Type: binding
Conditions: 25 °C
Procedure: In the following Table characteristics of the different humanized variants of the rabbit light chain variable domain in combination with the humanized heavy chain variable domains VH14 and VH20, respectively, are shown. Binding partner was human tau(pS422).
Kinetic screening was performed according to Schraeml et al. (Schraeml, M. and M. Biehl, Methods Mol. Biol. 901 (2012) 171-181) on a BIAcore 4000 instrument, mounted with a BIAcore CM5 sensor. The BIAcore 4000 instrument was under the control of the software version V1.1. A BIAcore CM5 series S chip was mounted into the instrument and was hydrodynamically addressed and preconditioned according to the manufacturer's instructions. The instrument buffer was HBS-EP buffer (10 mM HEPES (pH 7.4), 150 mM NaCl, 1 mM EDTA, 0.05% (w/v) P20). An antibody capture system was prepared on the sensor surface. A polyclonal goat anti-human antibody with human IgG-Fc specificity (Jackson Lab.) was immobilized at 30 μg/ml in 10 mM sodium acetate buffer (pH 5) to spots 1, 2, 4 and 5 in the instrument's flow cells 1, 2, 3 and 4 at 10,000 RU using NHS/EDC chemistry. In each flow cell the antibodies were captured on spot 1 and spot 5. Spot 2 and spot 4 were used as reference spots. The sensor was deactivated with a 1 M ethanolamine solution. Humanized antibody derivatives were applied at concentrations between 44 nM and 70 nM in instrument buffer supplemented with 1 mg/ml CMD (carboxymethyldextrane). The antibodies were injected at a flow rate of 30 μl/min for 2 minutes. The capture level (CL) of the surface-presented antibodies was measured in rel. response units (RU). The analytes in solution, phosphorylated human tau protein, non-phosphorylated human tau protein and the phosphorylated human tau mutant protein T422S were injected at 300 nM for 3 minutes at a flow rate of 30 μl/minute. The dissociation was monitored for 5 minutes. The capture system was regenerated by a 1 minute injection of 10 mM glycine buffer, pH 1.7 at 30 μL/minute over all flow cells. Two report points, the recorded signal shortly before the end of the analyte injection, denoted as binding late (BL) and the recorded signal shortly before the end of the dissociation time, stability late (SL), were used to characterize the kinetic screening performance. Furthermore, the dissociation rate constant kd (1/s) was calculated according to a Langmuir model and the antibody/antigen complex half-life was calculated in minutes according to the formula ln(2)/(60*kd). The molar ratio (MR) was calculated according to the formula MR=(Binding Late (RU))/(Capture level (RU))*(MW(antibody)/(MW(antigen)). In case the sensor was configured with a suitable amount of antibody ligand capture level, each antibody should be able to functionally bind at least to one analyte in solution, which is represented by a molar ratio of MR=1.0. Then, the molar ratio is also an indicator for the valence mode of analyte binding. The maximum valence can be MR=2 for an antibody binding two analytes, one with each Fab valence.
In another embodiment, kinetic rates were determined at 25° C. and 37° C. using the same experimental setup, but using multiple concentration series of each analyte in solution at 0 nM (buffer), 1.2 nM, 3.7 nM, 11.1 nM, 33.3 nM, 100 nM and 300 nM. From the concentration-dependent binding behavior the kinetic data was calculated using the BIAcore evaluation software according to the manufacturer's instructions and a Langmuir 1.1 model with RMAX global.

| kd (VH14 or VH20 with VL variants) | t/2 diss (VH14 or VH20 with VL variants) | kd (VL17 or VL19 with VH variants) | t/2 diss (VL17 or VL19 with VH variants) | kd [1/s] (VH14 or VH20 with VL variants) | Molecule |
| --- | --- | --- | --- | --- | --- |
| 0.00303 s⁻¹ and 0.00239 s⁻¹ | 4 min and 5 min | 0.003 s⁻¹ | 4 min | – | VH14 with VL17: anti-human tau(pS422) antibody; VH SEQ ID NO: 50, VL SEQ ID NO: 37 (antibody, V domains shown, humanized sequence) VH: QQLVESGGGLVQPGGSLRLSCAASGFSLSSNAINWVRQAPGKGLEWVGYIAVSGNTYYASWAKGRFTISRDNSKNTLYLQMNSLRAEDTAVYYCGKSNIWGPGTLVTVSS VL: DIQMTQSPSSLSASVGDRVTITCRSSQSVRTNKLAWFQQKPGQPPKRLIYSASTLDFGVPSRFSGSGSGTEFTLTISSLQPEDFATYYCLGYFDCSIADCVAFGGGTKVEIK |
| 0.00384 s⁻¹ | 3 min | – | – | – | VH14 with VL28: anti-human tau(pS422) antibody; VH SEQ ID NO: 50, VL SEQ ID NO: 39 (antibody, V domains shown, humanized sequence) VH: QQLVESGGGLVQPGGSLRLSCAASGFSLSSNAINWVRQAPGKGLEWVGYIAVSGNTYYASWAKGRFTISRDNSKNTLYLQMNSLRAEDTAVYYCGKSNIWGPGTLVTVSS VL: AIQMTQSPSTLSASVGDRVTITCRSSQSVRTNRLAWFQQKPGKAPKRLIYSASTLDFGVPSRFSGSGSGTEFTLTISSLQPDDFATYYCLGYFDPSADPVAFGGGTKVEIK |
| 0.0033 s⁻¹ | 4 min | – | – | – | VH14 with VL22: anti-human tau(pS422) antibody; VH SEQ ID NO: 50, VL SEQ ID NO: 17 (antibody, V domains shown, humanized sequence) VH: QQLVESGGGLVQPGGSLRLSCAASGFSLSSNAINWVRQAPGKGLEWVGYIAVSGNTYYASWAKGRFTISRDNSKNTLYLQMNSLRAEDTAVYYCGKSNIWGPGTLVTVSS VL: AQVMTQSPSSLSASVGDRVTITCRSSQSVRTNRLAWFQQKPGQPPKRLIYSASTLDYGVPSRFSGSGSGTEFTLTISSLQPEDFATYYCLGYFDSSADIVAFGGGTKVEIK |
| 0.00301 s⁻¹ | 4 min | – | – | – | VH14 with VL40: anti-human tau(pS422) antibody; VH SEQ ID NO: 50, VL SEQ ID NO: 43 (antibody, V domains shown, humanized sequence) VH: QQLVESGGGLVQPGGSLRLSCAASGFSLSSNAINWVRQAPGKGLEWVGYIAVSGNTYYASWAKGRFTISRDNSKNTLYLQMNSLRAEDTAVYYCGKSNIWGPGTLVTVSS VL: DIQMTQSPSSLSASVGDRVTITCRSSQSVRTNRLAWFQQKPGQPPKRLIYSASTLDFGVPSRFSGSGSGTEFTLTISSLQPEDFATYYCLGYFDPSADPVAFGGGTKVEIK |
| 0.011 s⁻¹ | 1 min | – | – | – | VH14 with VL35: anti-human tau(pS422) antibody; VH SEQ ID NO: 50, VL SEQ ID NO: 41 (antibody, V domains shown, humanized sequence) VH: QQLVESGGGLVQPGGSLRLSCAASGFSLSSNAINWVRQAPGKGLEWVGYIAVSGNTYYASWAKGRFTISRDNSKNTLYLQMNSLRAEDTAVYYCGKSNIWGPGTLVTVSS VL: AIQMTQSTSSLSASVGDRVTITCRSSQSVRTNRLAWFQQKPGQPPKRLIYSASTLDFGVPSRFSGSGSGTEFTLTISSLQPEDFATYYCLGYFDSSIADIVAFGGGTKVEIK |
| 0.00522 s⁻¹ | 2 min | – | – | – | VH14 with VL39: anti-human tau(pS422) antibody; VH SEQ ID NO: 50, VL SEQ ID NO: 42 (antibody, V domains shown, humanized sequence) VH: QQLVESGGGLVQPGGSLRLSCAASGFSLSSNAINWVRQAPGKGLEWVGYIAVSGNTYYASWAKGRFTISRDNSKNTLYLQMNSLRAEDTAVYYCGKSNIWGPGTLVTVSS VL: DIQMTQSPSSLSASVGDRVTITCRSSQSVRTNRLAWFQQKPGQPPKRLIYSASTLDFGVPSRFSGSGSGTEFTLTISSLQPEDFATYYCLGYFDPSIADPVAFGGGTKVEIK |
| – | 5 min | – | – | 2.35E−03. 1/s | VH14 with VL09: anti-human tau(pS422) antibody; VH SEQ ID NO: 50, VL SEQ ID NO: 33 (antibody, V domains shown, humanized sequence) VH: QQLVESGGGLVQPGGSLRLSCAASGFSLSSNAINWVRQAPGKGLEWVGYIAVSGNTYYASWAKGRFTISRDNSKNTLYLQMNSLRAEDTAVYYCGKSNIWGPGTLVTVSS VL: DIQMTQSPSTLSASVGDRVTITCRASQSVRTNKLAWYQQKPGKAPKRLIYSASTLESGVPSRFSGSGSGTEFTLTISSLQPDDFATYYCLGYFDCSIADCVAFGGGTKVEIK |
| 0.00293 s⁻¹ | 4 min | – | – | – | VH14 with VL21: anti-human tau(pS422) antibody; VH SEQ ID NO: 50, VL SEQ ID NO: 16 (antibody, V domains shown, humanized sequence) VH: QQLVESGGGLVQPGGSLRLSCAASGFSLSSNAINWVRQAPGKGLEWVGYIAVSGNTYYASWAKGRFTISRDNSKNTLYLQMNSLRAEDTAVYYCGKSNIWGPGTLVTVSS VL: AQVMTQSPSSLSASVGDRVTITCRSSQSVRTNKLAWFQQKPGQPPKRLIYSASTLDFGVPSRFSGSGSGTEFTLTISSLQPEDFATYYCLGYFDSSADIVAFGGGTKVEIK |
| 0.00104 s⁻¹ | 11 min | – | – | – | VH14 with VL00: anti-human tau(pS422) antibody; VH SEQ ID NO: 50, VL SEQ ID NO: 07 (antibody, listed as Oryctolagus cuniculus, V domains shown, humanized sequence) VH: QQLVESGGGLVQPGGSLRLSCAASGFSLSSNAINWVRQAPGKGLEWVGYIAVSGNTYYASWAKGRFTISRDNSKNTLYLQMNSLRAEDTAVYYCGKSNIWGPGTLVTVSS VL: AQVLTQTTSPVSAAVGSTVTISCQSSQSVRTNKLAWFQQKPGQPPKRLIYSASTLDFGVPSRFSASGSGTQFTLTISDVQCDDAATYYCLGYFDCSIADCVAFGGGTEVVVK |
| 0.00198 s⁻¹ | 6 min | 0.002 s⁻¹ | 6 min | – | VH14 with VL19: anti-human tau(pS422) antibody; VH SEQ ID NO: 50, VL SEQ ID NO: 38 (antibody, V domains shown, humanized sequence) VH: QQLVESGGGLVQPGGSLRLSCAASGFSLSSNAINWVRQAPGKGLEWVGYIAVSGNTYYASWAKGRFTISRDNSKNTLYLQMNSLRAEDTAVYYCGKSNIWGPGTLVTVSS VL: AQVMTQSPSSLSASVGDRVTITCRSSQSVRTNKLAWFQQKPGQPPKRLIYSASTLDFGVPSRFSGSGSGTEFTLTISSLQPEDFATYYCLGYFDCSIADCVAFGGGTKVEIK |
| 0.0102 s⁻¹ | 1 min | – | – | – | VH14 with VL33: anti-human tau(pS422) antibody; VH SEQ ID NO: 50, VL SEQ ID NO: 40 (antibody, V domains shown, humanized sequence) VH: QQLVESGGGLVQPGGSLRLSCAASGFSLSSNAINWVRQAPGKGLEWVGYIAVSGNTYYASWAKGRFTISRDNSKNTLYLQMNSLRAEDTAVYYCGKSNIWGPGTLVTVSS VL: AIQMTQSPSSLSASVGDRVTITCRSSQSVRTNRLAWFQQKPGQPPKRLIYSASTLDFGVPSRFSGSGSGTEFTLTISSLQPEDFATYYCLGYFDSSIADIVAFGGGTKVEIK |
| 0.00382 s⁻¹ | 3 min | – | – | – | VH14 with VL01: anti-human tau(pS422) antibody; VH SEQ ID NO: 50, VL SEQ ID NO: 32 (antibody, V domains shown, humanized sequence) VH: QQLVESGGGLVQPGGSLRLSCAASGFSLSSNAINWVRQAPGKGLEWVGYIAVSGNTYYASWAKGRFTISRDNSKNTLYLQMNSLRAEDTAVYYCGKSNIWGPGTLVTVSS VL: DIQMTQSTSTLSASVGDRVTITCQSSQSVRTNKLAWFQQKPGKAPKRLIYSASTLDFGVPSRFSGSGSGTEFTLTISSLQPDDFATYYCLGYFDCSIADCVAFGGGTKVEIK |
